Biological target: integrin β1 (on KYSE410 ESCC cells) (UniProt P05556)
Test: flow cytometry (cell binding)
Details: 0.01 M PBS, 4.5 g/L glucose, 5 mM MgCl2, 1 mg/mL BSA, 0.1 mg/mL yeast tRNA, 30 min on ice, ~1e5 cells, pH not stated

Sequence of integrin β1 (on KYSE410 ESCC cells) (P05556 21-798): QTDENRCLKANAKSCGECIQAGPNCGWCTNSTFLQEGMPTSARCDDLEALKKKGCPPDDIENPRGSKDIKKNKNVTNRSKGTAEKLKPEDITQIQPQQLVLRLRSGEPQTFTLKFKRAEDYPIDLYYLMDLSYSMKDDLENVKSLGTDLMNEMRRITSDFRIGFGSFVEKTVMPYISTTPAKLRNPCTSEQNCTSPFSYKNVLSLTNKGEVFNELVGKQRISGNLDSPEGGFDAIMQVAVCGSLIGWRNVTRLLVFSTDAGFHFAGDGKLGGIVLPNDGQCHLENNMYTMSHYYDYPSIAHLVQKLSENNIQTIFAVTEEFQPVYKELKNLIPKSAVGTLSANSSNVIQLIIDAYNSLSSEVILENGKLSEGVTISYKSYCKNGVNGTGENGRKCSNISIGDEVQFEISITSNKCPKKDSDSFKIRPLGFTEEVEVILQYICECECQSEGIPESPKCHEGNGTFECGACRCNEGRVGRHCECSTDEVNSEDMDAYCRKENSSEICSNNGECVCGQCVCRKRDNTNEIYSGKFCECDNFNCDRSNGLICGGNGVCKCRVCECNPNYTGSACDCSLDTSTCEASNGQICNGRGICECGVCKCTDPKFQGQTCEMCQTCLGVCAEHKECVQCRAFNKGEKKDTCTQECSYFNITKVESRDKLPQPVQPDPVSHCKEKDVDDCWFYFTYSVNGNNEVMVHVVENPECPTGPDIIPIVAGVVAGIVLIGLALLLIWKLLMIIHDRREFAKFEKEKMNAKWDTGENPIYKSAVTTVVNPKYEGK

Sequence: CGCGAATGCTATCGGGGCTAAGTATCAAAATGAGC [A2(35)]
- Kd: 58.1 nM

Sequence: CGTCGTCGTCGTCGTCGTTTTCGCGAATGCTATCGGGGCTAAGTATCAAAATGAGC / ACGACGACGACGACGACGTTTCGCGAATGCTATCGGGGCTAAGTATCAAAATGAGC [BAD (bivalent aptamer-DNA carrier)]
- Kd: 7.7 nM

— PMC11276760
